Legend:
[1] = target: T1, L428V mutant of human pregnane X receptor ligand binding domain (residues 130-434) (human, UniProt O75469 130-434, L428V); assay: crystal structure; PXR L428V LBD tethered to the SRC-1 peptide on one chain, apo and with the antagonist SJPYT-331; 50 mM Bis-Tris pH 6-7, 10-20% MPD, 20 °C; details: both partners purified
T1 construct: As m1, one polypeptide with the SRC-1 peptide: His6 - PXR 130-434 (L428V) - SGGSGG linker - SRC-1 678-710; also called PXR^L428V LBD; source: E. coli BL21(DE3), purified (HisTrap, HiTrap SP flow-through, Superdex 200 SEC)
T1 sequence (looked up): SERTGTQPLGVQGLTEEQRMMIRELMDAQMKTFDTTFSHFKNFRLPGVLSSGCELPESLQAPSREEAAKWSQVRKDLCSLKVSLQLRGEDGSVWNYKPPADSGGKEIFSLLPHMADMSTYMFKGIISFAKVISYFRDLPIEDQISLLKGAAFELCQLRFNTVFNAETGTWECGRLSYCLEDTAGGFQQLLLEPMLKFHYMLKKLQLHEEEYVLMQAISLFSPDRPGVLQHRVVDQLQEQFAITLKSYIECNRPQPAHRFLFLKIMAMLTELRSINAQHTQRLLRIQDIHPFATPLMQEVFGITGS

[2] = target: T2, human pregnane X receptor ligand binding domain (residues 130-434) (human, UniProt O75469 130-434); assay: crystal structure; PXR LBD tethered to the SRC-1 peptide on one chain, co-crystallised with an antagonist (SJPYT-310, SJPYT-278, SJPYT-312 or SJPYT-331; 2:1 ligand to protein); 50 mM Bis-Tris pH 6-7, 10-20% MPD, 20 °C; details: both partners purified
T2 construct: In the crystallised construct this domain and the SRC-1 peptide are one polypeptide: His6 - PXR 130-434 - SGGSGG linker - SRC-1 678-710; Written here as a molecule of its own for the pair PXR LBD / SRC-1; also called PXR LBD; WT PXR LBD; source: E. coli BL21(DE3), purified (HisTrap, HiTrap SP flow-through, Superdex 200 SEC)
T2 sequence (looked up): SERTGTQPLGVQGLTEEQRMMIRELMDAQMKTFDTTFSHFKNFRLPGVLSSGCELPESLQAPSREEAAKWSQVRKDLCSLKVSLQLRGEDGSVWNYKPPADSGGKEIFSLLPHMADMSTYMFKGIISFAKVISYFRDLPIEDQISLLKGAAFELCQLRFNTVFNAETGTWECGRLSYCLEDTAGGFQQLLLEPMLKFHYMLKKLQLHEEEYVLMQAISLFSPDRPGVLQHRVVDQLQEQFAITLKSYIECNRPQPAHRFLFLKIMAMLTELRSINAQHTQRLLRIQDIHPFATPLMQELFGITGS

binding result [1]: binds | binding result [2]: binds
B1: SRC-1 peptide (residues 678-710), 33 amino acids (peptide, UniProt Q15788 678-710, looked up)
chain: SSHSSLTERHKILHRLLQEGSPSDITTLSVEPD
notes: Not a free peptide: tethered to the C-terminus of PXR LBD (m1 or m3) through an SGGSGG linker on one chain; also called tethered SRC-1 peptide

From article PMC11094003, “Chemical manipulation of an activation/inhibition switch in the nuclear receptor PXR” (Nature Communications, 2024)
